Consider one molecule from publication PMC1669761 (Nucleic Acids Research, 2006).

In the assay the target is T1, purified His-tagged Smad4 (human, UniProt Q13485 1-552).
T1 sequence (looked up): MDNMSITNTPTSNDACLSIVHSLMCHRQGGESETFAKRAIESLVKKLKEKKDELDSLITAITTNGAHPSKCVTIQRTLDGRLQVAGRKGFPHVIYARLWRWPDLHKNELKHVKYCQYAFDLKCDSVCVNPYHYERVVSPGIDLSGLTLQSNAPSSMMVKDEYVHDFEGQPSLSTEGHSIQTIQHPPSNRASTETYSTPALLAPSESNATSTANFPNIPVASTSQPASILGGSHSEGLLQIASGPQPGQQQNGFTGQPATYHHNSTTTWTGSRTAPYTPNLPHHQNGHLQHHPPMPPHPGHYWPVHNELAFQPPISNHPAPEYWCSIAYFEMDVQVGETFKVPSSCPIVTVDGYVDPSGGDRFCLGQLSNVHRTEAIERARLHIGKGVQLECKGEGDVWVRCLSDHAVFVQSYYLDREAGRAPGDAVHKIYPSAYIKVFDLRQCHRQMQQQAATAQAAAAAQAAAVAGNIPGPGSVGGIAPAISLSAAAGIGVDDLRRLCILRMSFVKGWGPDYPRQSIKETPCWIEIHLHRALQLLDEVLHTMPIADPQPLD
Briefly: pull-down.

B1: GST-RBPMS(1–100) (domain or fragment)
chain: not shown
Take B1: the binding result is given as “binds”.
